In experiment [1] the target is HGFR protein extracellular domain with the His tag (human) (UniProt P08581). The experiment in a line: competition ELISA, blocks bio-HGF-His on coated HGFR-His. For orientation: An ELISA detects its analyte on a solid surface through an enzyme-linked reagent.
The target is the same in experiment [2]. The experiment in a line: SPR Biacore T200, antibody captured on Protein A, antigen in flow, 1:1 fit. On the technique in general: SPR reads the build-up and loss of mass on a sensor chip optically.
Experiment [3] concerns the target human EGFR protein extracellular domain with the His tag (human) (UniProt P00533). The description is as above.

pKd: −log10 of the molar value.

In general, IC50 refers to the concentration at which inhibition is half-maximal. Low readings indicate inhibition by little substance, high ones a need for much substance. The pKd is −log10 of the Kd, conventionally taken in molar units. Read a low pKd as a high Kd. What is called koff is a measure of how fast the partners let go of each other. A high value points to fast dissociation. For orientation: kon means the rate constant with which the complex forms. Consider MCLA (bispecific antibody), for which, in experiment [1], the IC50 was determined as 1.36 µg/mL and the Max (%) came out at 94.1%. In experiment [2], this substance gave a pKd of 7.99, an off-rate (koff) of 0.000303 s⁻¹ and a kon of 29500 M⁻¹ s⁻¹. In experiment [3], the negative-log Kd (pKd) was 7.16, the koff amounted to 0.00473 s⁻¹ and the kon amounted to 68500 M⁻¹ s⁻¹.

The record behind these values is patent publication US20240352132A1.
